A short description of data set [1]: folding stability dG unfold from chymotrypsin proteolysis; higher = more stable. Put shortly:
(§1)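 K50 was inferred by Bayesian fitting of sequencing counts obtained after protease digestion of designed mini-proteins. Unfolding free energy was derived by comparison with a sequence-predicted unfolded-state K50 and a shared folded-state K50, for each protease or both combined. The mini-proteins were under 80 residues, had no cysteine, were carried in a PA-tagged cDNA display construct, and were kept only if AlphaFold2 dimer inter-PAE exceeded 15.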

A short description of data set [2]: folding stability dG unfold from trypsin proteolysis; higher = more stable. Put shortly:
as §1

The nature of data set [3]: folding stability dG unfold (combined trypsin and chymotrypsin); higher = more stable. Put shortly:
as §1

± gives the half width of the 95% confidence interval.

“SAGGSMEEEFAARGATVTIDPEKGVITVTFYEEVTQPDGTPVLRRKGTLTIEVPGNDPSQALAKALEESAGG [r13_924_JUSTAS]”: the “folding stability dG unfold” value worked out at 2.1 ± 0.088 kcal/mol in data set [1], 1.41 ± 0.032 kcal/mol in data set [2] and 1.96 ± 0.12 kcal/mol in data set [3].
With “SAGGSMIEVERDPNDPNRYRARLPVIEENPPEPKLVYVDVYVDPENGLVYARAVTEDGGEAEFRFESAGGSA [r2_428_TrMRF]”, the “folding stability dG unfold” value stood at 1.03 ± 0.16 kcal/mol in data set [1], 0.448 ± 0.12 kcal/mol in data set [2] and 0.786 ± 0.17 kcal/mol in data set [3].
On to “SAGGSMIPLDNIDTIEIYENPKEGKYEAKIYFPSNGKVYVFPEGLLPEIIESTPKIKEIKVIPVPESAGGSA [r2_159_TrMRF]”, for which the results for the “folding stability dG unfold” value in data set [1], in data set [2] and in data set [3] were 0.362 ± 0.26 kcal/mol, -1.19 ± 0.71 kcal/mol and -0.0295 ± 0.25 kcal/mol, respectively.
The corresponding values for “SAGGSMITFTVTPDATVEFPDGVTVTLIPGEGKWVATAGEKEIEAPYTPLPDDTYVVTLELPEGIAASAGGS [r16_245_JUSTAS]” are -0.101 ± 0.27 kcal/mol, 0.337 ± 0.046 kcal/mol and 0.369 ± 0.13 kcal/mol.
As for “SAGGSMITLTFPAPREVAVPAIEAAAEKHGVTILSVEFDPATGRLTVTVDSSLPEEEVRAMVAAVLASAGGS [r8_338_JUSTAS]”, the “folding stability dG unfold” value in data set [1] worked out at 4.47 ± 0.058 kcal/mol; in data set [2], 4.75 ± 0.24 kcal/mol; in data set [3], 4.57 ± 0.075 kcal/mol.
On to “SAGGSMIVKVTVRVDGKEYERTVEVESLEEALELELPELPEGAEVRIEVVDPETGELIETVTLRVPSAGGSA [r2_390_TrROS_Hall]”, for which the “folding stability dG unfold” value is 2.56 ± 0.052 kcal/mol in data set [1], 2.3 ± 0.13 kcal/mol in data set [2] and 2.46 ± 0.15 kcal/mol in data set [3].
As to “SAGGSMKIEKLPDGKTVVIETVDEETNTITRTRFKLDKDGKLVEMEVETITLPAPPPEEVDEDGKESAGGSA [r2_375_TrROS_Hall]”, the results for the “folding stability dG unfold” value in data set [1], in data set [2] and in data set [3] were 2.3 ± 0.092 kcal/mol, 1.92 ± 0.098 kcal/mol and 2.17 ± 0.16 kcal/mol, respectively.
As for “SAGGSMKPAKKITFTFPDGRKAEIFFYPEEDTIELRIYFPETGTFVEIPVKSPEDLIETLKKLLAESAGGSA [r2_70_TrMRF]”, the “folding stability dG unfold” value in data set [1] came to 3.7 ± 0.14 kcal/mol; in data set [2] it was 4.02 ± 0.16 kcal/mol; in data set [3], 3.75 ± 0.16 kcal/mol.
As to “SAGGSMLFLRVRIEVRPPTAEDLAEGKEVKEVEILVEFDSVEELKEALEKLPPNAKVEVELVELEESAGGSA [r2_25_TrROS_Hall]”, the “folding stability dG unfold” value was determined as 2.9 ± 0.17 kcal/mol in data set [1], 2.36 ± 0.26 kcal/mol in data set [2] and 2.83 ± 0.53 kcal/mol in data set [3].
“SAGGSMLIKIKLPKNNPLRDKIVEKLKKSPYVKDVKVKRLKELPNYEIFLIEVDGDPKVADEIKKLASAGGS [r16_394_TrMRF]”: the figures for the “folding stability dG unfold” value in data set [1], in data set [2] and in data set [3] were 3.08 ± 0.045 kcal/mol, 2.16 ± 0.09 kcal/mol and 2.83 ± 0.15 kcal/mol, respectively.
The corresponding values for “SAGGSMPLDVSSELLEESTDPSDPNRRTTLERRFSPDGTVTLVTRTFDPATGTTEVQETTLPPGLPSAGGSA [r2_73_JUSTAS]” are 1.49 ± 0.14 kcal/mol, 0.529 ± 0.06 kcal/mol and 1.14 ± 0.099 kcal/mol.
The corresponding values for “SAGGSMPLTLEIKAPASTPASEIVATLKKYGPVTVTLGDGRTYNIPRDKPPNLKGLPLAPDAVLTLVVSAGG [r13_399_JUSTAS]” are -0.742 ± 0.4 kcal/mol, -0.08 ± 0.1 kcal/mol and -0.263 ± 0.091 kcal/mol.
Consider “SAGGSMPTLKPDEILTLSSTTEPLPSGGLRGRTVTLKKIPGTGKFVTITKYSYQPPDGPITSATEILLSAGG [r13_263_JUSTAS]”, for which the “folding stability dG unfold” value in data set [1] was 0.585 ± 0.26 kcal/mol; in data set [2], -0.538 ± 0.48 kcal/mol; in data set [3], 0.238 ± 0.15 kcal/mol.
As for “SAGGSMPYKTLEESESEIYDPSNGNVKYKVKTETILLPDGTILVKETIYDPETGTTETKTYTIPKGSAGGSA [r2_13_JUSTAS]”, the “folding stability dG unfold” value amounted to 1.82 ± 0.13 kcal/mol in data set [1], 1.54 ± 0.14 kcal/mol in data set [2] and 1.79 ± 0.1 kcal/mol in data set [3].
In the case of “SAGGSMRLVKITVTTLEPSAEAIAAGAPTPVTLIEREVSSEEEVEEFIKSLPPNVEVSVERLPPPASAGGSA [r2_25_JUSTAS]”, the “folding stability dG unfold” value is 2.16 ± 0.03 kcal/mol in data set [1], 1.66 ± 0.11 kcal/mol in data set [2] and 2.04 ± 0.12 kcal/mol in data set [3].
As for “SAGGSMSLEGVSTVSEEKFPEKPTTLVPLTYPDGTTVEANRTLDPVTGKWTLPVTTPDGTVVVVDESAGGSA [r2_490_JUSTAS]”, the “folding stability dG unfold” value worked out at 0.487 ± 0.073 kcal/mol in data set [1], 1.34 ± 0.048 kcal/mol in data set [2] and 0.977 ± 0.089 kcal/mol in data set [3].
For “SAGGSMSPWHWARHIAKKLRKKFPPGKKVRIKIEYDDGPVEFEIPPGEWIPIPSNAPIEILNIKVKSAGGSA [r2_391_TrROS]”, the figures for the “folding stability dG unfold” value in data set [1], in data set [2] and in data set [3] were 2.36 ± 0.11 kcal/mol, 1.97 ± 0.034 kcal/mol and 2.25 ± 0.11 kcal/mol, respectively.
With “SAGGSMTIKINGAEITDIEVRDDGTIRIKVRVTNENGEEVEVTLEIRIEPAPPVEVVHPDDPEALESAGGSA [r2_368_TrROS_Hall]”, the entries for the “folding stability dG unfold” value in data set [1], in data set [2] and in data set [3] were 2.45 ± 0.066 kcal/mol, 3.09 ± 0.16 kcal/mol and 2.73 ± 0.097 kcal/mol, respectively.

Source of the values: the supplement of paper PMC12764529.
